Data taken from patent US20220275088A1 (Dana-Farber, published 2022).

What was measured:
[1] = target: human PD-1 on cells (transfected Expi293 cells, PHA-cultured T cells, cells of the Promega PD1-PDL1 bioassay, … (human, UniProt Q15116 25-288)); assay: cell-based or functional assay
[2] = target: T1, mouse PD-1 on transiently transfected Expi293 cells (mouse, UniProt Q02242 25-288); assay: flow cytometry on transiently transfected Expi293 cells, anti human Fc-APC
T1 construct: whole, on cells; also called mPD-1
T1 sequence (looked up): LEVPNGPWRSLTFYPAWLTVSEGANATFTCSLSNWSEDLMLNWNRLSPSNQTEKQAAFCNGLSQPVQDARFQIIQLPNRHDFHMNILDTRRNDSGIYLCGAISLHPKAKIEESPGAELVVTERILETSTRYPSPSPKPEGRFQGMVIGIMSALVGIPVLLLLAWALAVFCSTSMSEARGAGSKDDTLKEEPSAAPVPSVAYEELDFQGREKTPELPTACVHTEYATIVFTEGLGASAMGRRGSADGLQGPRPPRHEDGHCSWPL
Description: 3E5 transiently transfected Expi293 cells were suspended in 100 ul MACS buffer and added to each well. 50 ul of each antibody dilution were then mixed with the cells and the plate was incubated at 4° C. for 30 min. Following incubation, the plate was washed 2× with MACS buffer and then incubated with 1 ul/well anti human Fc-APC (Biolegend #409306). The plate was incubated for 25 min at 4° C. and then washed 3× before running the samples.

Chain of human PD-1 on cells (transfected Expi293 cells, PHA-cultured T cells, cells of the Promega PD1-PDL1 bioassay, … (Q15116 25-288): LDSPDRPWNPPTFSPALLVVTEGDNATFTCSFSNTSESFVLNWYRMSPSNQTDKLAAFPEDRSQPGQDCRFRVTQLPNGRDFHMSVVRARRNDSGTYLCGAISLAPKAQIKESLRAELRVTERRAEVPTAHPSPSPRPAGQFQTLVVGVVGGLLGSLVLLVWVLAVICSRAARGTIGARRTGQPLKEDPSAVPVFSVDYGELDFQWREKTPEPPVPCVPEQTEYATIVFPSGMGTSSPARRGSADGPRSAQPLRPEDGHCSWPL

B1: P4-B3 IgG1 wild type monomer (antibody, V domains shown)
VH: QVQLVQSGGGLVQPGRSLRLSCAASGFTFDDYAMHWVRQAPGKGLEWVSGISWNSGSIGYADSVKGRFTVSRDNAKNSLYLQMNSLRAEDTAVYYCASDYGDKYYYYGMDVWGKGTTVTVSS
VL: QPGLTQPPSASGTPGQRVTISCSGSSSNIGSNTVNWYQQFPGKAPKLLIFNDNQRPSGVPDRFSASKSGTSASLAISGLQSEDEADYYCAAWDGGLNGRGVFGGGTKLTVLG
fold induction (RLU stimulated/RLU unstimulated), Promega PD1-PDL1 bioassay [1]: ~0.5 fold of the signal of pembro and nivo

B2: P4-B3 (Example 8, format not stated) (antibody, V domains shown)
VH: QVQLVQSGGGLVQPGRSLRLSCAASGFTFDDYAMHWVRQAPGKGLEWVSGISWNSGSIGYADSVKGRFTVSRDNAKNSLYLQMNSLRAEDTAVYYCASDYGDKYYYYGMDVWGKGTTVTVSS
VL: QPGLTQPPSASGTPGQRVTISCSGSSSNIGSNTVNWYQQFPGKAPKLLIFNDNQRPSGVPDRFSASKSGTSASLAISGLQSEDEADYYCAAWDGGLNGRGVFGGGTKLTVL
notes: Detected with anti human Fc-APC, so it carries a human Fc
binding result [2]: binds
